Tests used:
[1] = target: monomeric wild-type RBD (319-541) of the SARS-CoV-2 spike (S)-protein (SARS-CoV-2 (Wuhan-Hu-1 isolate)) (UniProt P0DTC2); experiment: SEC
[2] = target: tRBD-TA, truncated RBD (319-537) with T323 mutated to alanine (SARS-CoV-2 (Wuhan-Hu-1 isolate)) (UniProt P0DTC2); experiment: SEC

Row | Substance | proportion of dimer in the preparation [1] [%] | stoichiometry N [1] | percent of the protein dimerized after 7 days at 25°C [2] [%] | proportion of dimer in the preparation [2] [%]
1 | monomeric wild-type RBD (319-541) of the SARS-CoV-2 spike (S)-protein (from UniProt P0DTC2 319-541) (domain or fragment) | 20 to 25 | 2 | – | –
2 | tRBD-TA, truncated RBD (319-537) with T323 mutated to alanine (from UniProt P0DTC2 319-537) (domain or fragment) | – | – | 10 | 25 to 28
